Reference: patent US20240082304A1 (published 2024)

Biological target: T1, CT83 peptide on HLA-A2 (human)
T1 peptide: KLVELEHTL
Test: killing

B1: A2-CT83 TCR (TCR, V domains shown)
Valpha: GEDVEQSLFLSVREGDSSVINCTYTDSSSTYLYWYKQEPGAGLQLLTYIFSNMDMKQDQRLTVLLNKKDKHLSLRIADTQTGDSAIYFCAEKSGYSGAGSYQLTFGKGTKLSVIP
Vbeta: SAVISQKPSRDICQRGTSLTIQCQVDSQVTMMFWYRQQPGQSLTLIATANQGSEATYESGFVIDKFPISRPNLTFSTLTVSNMSPEDSSIYLCSVQDSEAFFGQGTRLTVV
binding result: recognises
